According to article PMC5314372:

Legend:
[1] = biological target: N-terminally-truncated ΦAB6 tailspike protein (residues 136-699) (bacteriophage ΦAB6); assay: AUC; sedimentation at 20,000 rpm, Beckman XL-A, An-60 Ti rotor; 25 mM Tris-HCl, 300 mM NaCl, pH 8.0; analysed with SEDFIT
[2] = biological target: N-terminally-truncated ΦAB6 tailspike protein (residues 136-699) (bacteriophage ΦAB6); assay: crystal structure; hanging-drop vapor diffusion at 20 °C; 1.0 M sodium malonate pH 7.0 or 0.9 M sodium citrate, 0.1 M sodium cacodylate pH 6.5; space group C2, one trimer in the asymmetric unit; free form and forms soaked with Ab-54149 polysaccharide
[3] = biological target: bacteriophage ΦAB6 tailspike protein (bacteriophage ΦAB6); assay: SEC; analytical gel-filtration column, single peak; calibration curve of log MW versus Ve/V0 with five protein markers
[4] = biological target: bacteriophage ΦAB6 tailspike protein (bacteriophage ΦAB6); assay: AUC; sedimentation at 20,000 rpm, Beckman XL-A, An-60 Ti rotor; 25 mM Tris-HCl, 300 mM NaCl, pH 8.0; analysed with SEDFIT

Substance	stoichiometry N [1]	stoichiometry N [2]	stoichiometry N [3]	stoichiometry N [4]
N-terminally-truncated ΦAB6 tailspike protein (residues 136-699) (domain or fragment)	3	3	–	–
bacteriophage ΦAB6 tailspike protein (enzyme)	–	–	3	3
